Earlier results as cited in patent publication US11672857B2, “Compositions and methods for a multi-adjuvant only approach to immunoprophylaxis for preventing infections” (University of Southern California, priority 2017, dated 2023).

Tested on: T cell
Conditions: compared with non-glycosylated ovalbumin produced in E. coli

B1: Yeast-mannosylated ovalbumin: recombinant ovalbumin mannosylated by yeast during production (Lam et al.) (protein, UniProt P01012 2-386, looked up)
Ovalbumin: GSIGAASMEFCFDVFKELKVHHANENIFYCPIAIMSALAMVYLGAKDSTRTQINKVVRFDKLPGFGDSIEAQCGTSVNVHSSLRDILNQITKPNDVYSFSLASRLYAEERYPILPEYLQCVKELYRGGLEPINFQTAADQARELINSWVESQTNGIIRNVLQPSSVDSQTAMVLVNAIVFKGLWEKAFKDEDTQAMPFRVTEQESKPVQMMYQIGLFRVASMASEKMKILELPFASGTMSMLVLLPDEVSGLEQLESIINFEKLTEWTSSNVMEERKIKVYLPRMKMEEKYNLTSVLMAMGITDVFSSSANLSGISSAESLKISQAVHAAHAEINEAGREVVGSAEAGVDAASVSEEFRADHPFLFCIKHIATNAVLFFGRCVSP
modifications: yeast mannosylation
T cell proliferation: significantly greater T cell proliferation than did non-glycosylated ovalbumin produced in E. coli
